The text below walks through data of patent publication US20240279335A1, “CD28 SHEDDING BLOCKING AGENTS” (BIOND BIOLOGICS LTD., priority 2021, published 2024).

For test [1], the target named is human CD28 on the cell surface (membranal CD28) (human) (UniProt P10747). The test can be described thus: flow cytometry on human CD3 cells, 300 nM, anti-human IgG VHH Alexa Fluor 647. A general note: In flow cytometry, cells or beads pass a laser one at a time.
The target is the same in test [2]. The test is described as above. This is another data set of the same source.
In test [3] the target is T1, soluble CD28 (sCD28) from SEB stimulated PBMC (Homo sapiens, UniProt P10747).
T1 construct: PBMCs were isolated from fresh blood samples of healthy donors; endogenous in cells; host or cells: human PBMCs from healthy donors, SEB-stimulated
The test is classed as cell-based.

Test [4] concerns the target T2, human CD28-Fc chimera (R&D, Cat. No. 342-CD) (human, UniProt P10747 19-152).
T2 construct: Bought reagent; also called recombinant human CD28-Fc fusion protein; recombinant CD28 fused to an Fc backbone; Fc part of the bought chimera not given
The test can be described thus: ELISA: serial dilution of the agent on recombinant human CD28-Fc fusion protein, OD read.

Test [5] relates to isolated T cells mixed with mature dendritic cells. In words: Allogeneic mixed lymphocyte reaction (MLR), cytokine secretion. The test is classed as cell-based, human. The conditions noted are these: monomeric affinity matured VHHs; especially at high concentrations; FIG. 2. The procedure:
(§1) Cytokines ELISA—Commercial ELISA kits were used for quantitation of the amount of human interferon-gamma (Biolegend, Cat. No. 430103), human interleukin 2 (Biolegend, Cat. No. 431802) and human CD28 (R&D system, Cat. No. DY342). Cell Proliferation and viability (MTT assay) was conducted to assure validity of results and performed according to manufacturer instructions (Roche, Cat. No. 11465007001).
Dendritic cell differentiation—Monocytes were cultured at a density of 1×10^6/mL in RPMI medium with growth factors that was refreshed at day 3 and at day 6. […] When needed the iDCs were further differentiated into mature dendritic cells by addition of 100 ng/mL LPS (Sigma, Cat. No. L4391) and 20 ng/mL interferon-gamma (R&D systems, Cat. No. 285-IF) for 48 hrs. The generated cell populations were tested for the indicated phenotypes by FACS analysis of relevant markers and by analysis of secretion of characteristic cytokines.
Allogeneic Mixed Lymphocyte Reaction—0.1×10^6 T cells were mixed with […] dendritic cells from different donor for 24-96 hours at 37° C. with/without the indicated concentration of treatments. Assays were conducted in complete RPMI-1640 media supplemented with 10% FCS and pen/strep mixture. […]

Test [6] deals with T3, CD28-Fc (Homo sapiens, UniProt P10747).
T3 construct: Fc
The test can be described thus: Biacore multi-cycle kinetics on immobilized CD28-Fc. The test is classed as binding. The conditions noted are these: Table 3, monomeric VHH clones; for ka: affinity constants to CD28-Fc. Here is the method:
Biacore—Affinity clones derived from VHH #2A01 affinity maturation libraries was determined using CD28-Fc immobilized on a CM5 Series S sensor chip. Multi-cycle kinetics measurements were done using 5 step dilutions of the analytes (VHH clones) from 200 nM down to 12.5 nM. Kinetic parameters and affinity values were calculated using the 1:1 binding model in Biacore T 200 E valuation software 3.1 by introducing a double (blank channel and blank sample) subtraction.
(In SPR one partner is held on a chip, and binding of the other changes the refractive index at the surface.)

For test [7], the target named is T2, human CD28-Fc chimera (R&D, Cat. No. …). The test can be described thus: SPR (Biacore), CD28-Fc immobilized on CM5 chip, VHH as analyte, multi-cycle kinetics, 1:1 model.
For test [8], the system named is isolated CD3 T cells. In words: T cell stimulation with HEK/CD80/scOKT3 artificial antigen presenting cells (aAPC-CD80), IL-2 secretion. It is filed as cell-based, human. The conditions noted are these: various concentrations, FIG. 13A-13F, 17A-17F. The procedure:
as §1
T cells stimulation with HEK/CD80/scOKT3 artificial antigen presenting cells (aAPC-CD80)—1×10^5 isolated CD3 T cells (from healthy donors) were stimulated with 0.5×10^4 mitomycin treated aAPC-CD80 (HEK293 cells stably transfected with CD80 and scOKT3-CD14 chimera plasmids) for 24-72 hr at 37° C. Treatments of VHH targeting CD28 or controls were added at the indicated concentration in soluble form. When stated, VHH #3C04 (raised against human HER2) was used as an “irrelevant control” and VHH #12B09 was used as a “positive control” for a nanobody with CD28 antagonist effect. Assays were conducted in complete RPMI-1640 media supplemented with 10% FCS and pen/strep mixture.

Where “and” joins values, the source holds several entries; their conditions need not be identical. Equal values may be shown once. Read-outs that look alike come from different tables or passages of the source.

In the case of Isotype hIgG4 (antibody), the MFI in test [1] was determined as 71.9 MFI; in test [2], 116 MFI.
On to `CC#CCOc1ccc(S(=O)(=O)N2CCSC(C)(C)[C@@H]2C(=O)NO)cc1` [TMI, reference compound], for which the “sCD28 levels / inhibition of sCD28 production” value in test [3] was “greatly reduced sCD28 levels”.

B1: VHH 2A1 (VHH)
VHH: EVQLVESGGGLVQAGESLRLSCAASGSIASINAMGWYRQAPGSQRELVAAISGGGDTYYADSVKGRFTISRDNAKTTVYLQMNSLRPEDTAVYYCVVDLYGSDYWDWGQGTQVTVSS
notes: Monomeric llama VHH; also called VHH #2A01; monomeric 2A1
For the molecule B1, the EC50 (read off the curve) – broadly, the concentration at which the effect is half-maximal – in test [4] is roughly 40 nM.

B2: VHH 6B10: affinity matured variant of VHH 2A1, SEQ ID NO: 28 (protein)
VHH: EVQLVESGGGLVQAGESLRLSCAASGSIASINAMGWYRQAPGSQRELVAAISGGGDTYYADSVKGRFTISRDNAKTTVYLQMNSLRPEDTAVYYCVVDTHRGVYWYWGQGTQVTVSS
With B2, in test [3], the “blocking of CD28 shedding compared to the parental VHH” value is on record as “superior to the parental VHH”. The “proinflammatory cytokine (IFN gamma) secretion in MLR, antagonistic effect” value in test [5] is reported as “robust antagonistic effect”.

B3: VHH 5A3 (VHH)
VHH: EVQLVESGGGLVQAGESLRLSCAASGSIASINSMGWYRQAPGSQRELVAAINEKLLIYYADSVKGRFTISRDNAKTTVYLQMNSLRPEDTAVYYCVVDLYGSDYWDWGQGTQVTVSS
notes: also called 5A03
In the case of B3, the “blocking of CD28 shedding compared to the parental VHH” value in test [3] was “superior to the parental VHH”. In addition, the “kd” value in test [6] (CD28-Fc) turned out to be 3.78e-05 s⁻¹. In test [6], the “ka” value came out at 33800 M⁻¹ s⁻¹. For the same molecule, in test [7], the Kd (as a rule, the free concentration of one partner at which half of the binding sites on the other are occupied at equilibrium, for simple one-to-one binding) amounted to 1.12 nM; the koff (as a rule, a measure of how fast the partners let go of each other) was 3.78e-05 s⁻¹; the kon (as a rule, the second-order rate constant of association) stood at 33800 M⁻¹ s⁻¹. Besides, the “proinflammatory cytokine (IFN gamma) secretion in MLR, antagonistic effect” value in test [5] is given as “robust antagonistic effect”.

B4: VHH 11E11 (VHH)
VHH: EVQLVESGGGLVQAGESLRLSCAASGSIASINSMAWYRQAPGSQRELVAAISNAREVYYADSVKGRFTISRDNAKTTVYLQMNSLRPEDTAVYYCVVDVYFQEYWYWGQGTQVTVSS
In the case of B4, the “kd” value in test [6] (CD28-Fc) came out at 1.64e-05 s⁻¹. Also, in test [6], the “ka” value was determined as 46600 M⁻¹ s⁻¹. Further, in test [7], binding was characterised by a dissociation constant (Kd) of 0.352 nM, the koff came to 1.64e-05 s⁻¹ and the kon was found to be 46600 M⁻¹ s⁻¹.

B5: VHH 11G11 (VHH)
VHH: EVQLVESGGGLVQAGESLRLSCAASGSIASINTMAWYRQAPGSQRELVAAINSISRTYYADSVKGRFTISRDNAKTTVYLQMNSLRPEDTAVYYCVVDVTKEDYWYWGQGTQVTVSS
For the molecule B5, the “kd” value in test [6] (CD28-Fc) amounted to 5.77e-06 s⁻¹. The “ka” value in test [6] stood at 47800 M⁻¹ s⁻¹. In test [7], the Kd was 0.12 nM and 0.121 nM; the off-rate constant (koff) came out at 5.77e-06 s⁻¹; the kon is 47800 M⁻¹ s⁻¹.

B6: VHH 9B3 (VHH)
VHH: EVQLVESGGGLVQAGESLRLSCAASGSIASIRTMAWYRQAPGSQRELVAAISSGREVYYADSVKGRFTISRDNAKTTVYLQMNSLRPEDTAVYYCVVDMYWQDYWWWGQGTQVTVSS
notes: also called 9B03
For B6, in test [6] (CD28-Fc), the “kd” value amounted to 7.17e-08 s⁻¹. Further, the “ka” value in test [6] was determined as 112000 M⁻¹ s⁻¹. Besides, in test [7], the Kd turned out to be 0.000642 nM, the koff is 7.17e-08 s⁻¹ and the kon was found to be 112000 M⁻¹ s⁻¹.

B7: VHH 9A7 (VHH)
VHH: EVQLVESGGGLVQAGESLRLSCAASGSIASINSMGWYRQAPGSQRELVAAISDRSEKYYADSVKGRFTISRDNAKTTVYLQMNSLRPEDTAVYYCVVDHHHSDWWTWGQGTQVTVSS
notes: also called 9A07
Turning to B7, the “kd” value in test [6] (CD28-Fc) was 9.78e-06 s⁻¹. The “ka” value in test [6] came to 51500 M⁻¹ s⁻¹. In test [7], this molecule came in with an equilibrium dissociation constant (Kd) of 0.19 nM, a koff of 9.78e-06 s⁻¹ and a kon of 51500 M⁻¹ s⁻¹.

B8: 2A1-Hinge: VHH 2A1 with human IgG1 hinge region downstream, dimeric, SEQ ID NO: 114 (protein)
chain: EVQLVESGGGLVQAGESLRLSCAASGSIASINAMGWYRQAPGSQRELVAAISGGGDTYYADSVKGRFTISRDNAKTTVYLQMNSLRPEDTAVYYCVVDLYGSDYWDWGQGTQVTVSSDKTHTCPPCPAPEL
modifications: dimeric
For the molecule B8, the “sCD28 levels / inhibition of sCD28 production” value in test [3] was “did inhibit sCD28 production, but only at levels that were comparable to the 2A1 monomer”. Moreover, in test [8], the “IL-2 secretion, antagonistic effect” value is on record as “no effect on IL-2 secretion”.

B9: VHH 10E1 (VHH)
VHH: EVQLVESGGGLVQAGESLRLSCAASGSIASIKTMAWYRQAPGSQRELVAAINYIKEIYYADSVKGRFTISRDNAKTTVYLQMNSLRPEDTAVYYCVVDVTKEDYWYWGQGTQVTVSS
notes: also called 10E01
Turning to B9, the “kd” value in test [6] (CD28-Fc) came out at 2.84e-06 s⁻¹. Also, the “ka” value in test [6] was found to be 44400 M⁻¹ s⁻¹. In test [7], the Kd is 0.0639 nM, the koff was 2.84e-06 s⁻¹ and the on-rate (kon) was 44400 M⁻¹ s⁻¹.

B10: VHH 12A09: affinity matured variant of VHH 2A1, SEQ ID NO: 32 (protein)
VHH: EVQLVESGGGLVQAGESLRLSCAASGSIASIKTMAWYRQAPGSQRELVTAIASDNRKYYADSVKGRFTISRDNAKTTVYLQMNSLRPEDTAVYYCVVDVTKEDYWYWGQGTQVTVSS
Consider B10, for which, in test [6] (CD28-Fc), the Kd came to 0.0041 nM and the “kd” value came out at 3.43e-07 s⁻¹. For the same molecule, the “ka” value in test [6] amounted to 83400 M⁻¹ s⁻¹.
